Ends that are not written are not given here. * marks the point of attachment. For = O=C*

The source of these data is paper doi:10.1101/2024.02.27.582255 (bioRxiv, 2024).

The data set deals with the molecule itself. Kind of data set: ThT fluorescence + TEM.

MEFVAKLFKFFKDLLGKFLGNN [deformylated wild-type phenol soluble modulin α3 (df-WT PSMα3)]: the binding result is on record as “binds”. The same measure for For-MEFVAKLFKFFKDLLGKFLGNN [formylated wild-type phenol soluble modulin α3 (f-WT PSMα3)]: “binds”.
